Laboratory results from patent US20240382572A1, “COMBINATIONS OF CHECKPOINT INHIBITORS AND THERAPEUTICS TO TREAT CANCER” (Cognate Bioservices, Inc., priority 2013, published 2024).

Assays:
PD-1 = target: T1, PD-1 (Homo sapiens, UniProt Q15116); conditions: phase II, DLBCL, cited from earlier work
T1 construct: host or cells: Trial subjects (patients); PD-1 is endogenous

GL261 murine glioma [1] = experiment: Flow cytometry of tumor, lymph node and spleen harvests from GL261 glioma-bearing mice; type: in vivo, C57BL/6 mice
Protocol: Mice were intracranially implanted with GL261 murine glioma and then administered PBS (Ix) or lysate-pulsed DC vaccine subcutaneously on days 3 and 13 post-tumor implant. On day 16, 72 h after the second treatment, mice were euthanized and spleen, lymph, and brain hemispheres harvested for processing.
Spleen, lymph, and brain hemispheres harvested for processing on day 16 post-implant (72 h after second treatment).
Bone marrow-derived DC and vaccination. […] Briefly, bone marrow cells were cultured in a humidified atmosphere of 5% CO2 at 37° C. overnight in complete RPMI (Mediatech, Inc. Herndon, VA) (supplemented with 10% FBS, 1% (v/v) penicillin and streptomycin). The day following, nonadherent cells were collected and plated with murine interleukin-4 (IL-4, 400 IU/mL, R&D Systems, Minneapolis, MN) and murine granulocyte-macrophage colony stimulating factor (GM-CSF, 100 ng/mL, R&D Systems, Minneapolis, MN). On day 4, adherent cells were re-fed with fresh media with the same cytokines. On day 7, DCs were harvested and resuspended at 1×10^6 cells/ml in complete RPMI and pulsed with GL261 lysate (250 μg/mL). On day 8, DCs were collected and resuspended at 2×10^6 cells/mL in PBS Ix and immediately prepared for injection in 0.2 mL of cell suspension per mouse. Injections were given subcutaneously (s.c.) at 4 sites on the back.
Intracranial glioma implants. […]

GL261 murine glioma [2] = experiment: Survival of mice with intracranial GL261 glioma; type: in vivo, C57BL/6 mice; conditions: mice with well-established intracranial GL261 glioma

T1 sequence (Q15116 25-288): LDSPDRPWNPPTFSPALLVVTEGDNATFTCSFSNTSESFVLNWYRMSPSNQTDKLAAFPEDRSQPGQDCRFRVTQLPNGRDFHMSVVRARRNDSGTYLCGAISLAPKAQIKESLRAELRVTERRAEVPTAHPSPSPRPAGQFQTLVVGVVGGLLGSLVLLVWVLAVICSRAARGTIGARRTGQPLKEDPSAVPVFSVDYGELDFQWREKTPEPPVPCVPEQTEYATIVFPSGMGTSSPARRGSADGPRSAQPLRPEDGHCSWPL

Compound	subjects alive (PD-1; preliminary results) [%]	subjects progression-free at the end of the follow-up period (PD-1; preliminary results) [%]	activity of natural killer cells (PD-1)	myeloid cells expressing PD-L1 (Thy1.2- Ly6C+ PD-L1+) in tumor (GL261 murine glioma [1])	activated tumor-infiltrating lymphocytes (CD3+ CD8+ CD25+) (GL261 murine glioma [1]; day 16 post-implant)	survival (GL261 murine glioma [2])
CT-011: humanized IgG1 monoclonal antibody against PD-1	82	70	augments the activity of natural killer cells			
FC(F)(F)c1ccc(CNc2ccc(Cc3c[nH]c4ncc(Cl)cc34)cn2)cn1 [PLX3397]				absence of these Ly6C^+ PD-L1^+ cells	significant tumor-infiltrating population	entirely recovered survival benefit
